# Patent US20200325187A1 (Genentech, published 2020)
# Assays:
# rat VEGF-A = target: T1, rat VEGF-A (rat, UniProt P16612-2 27-190, limits assumed); assay: SPR
# T1 construct: also called rVEGF
# T1 sequence (looked up): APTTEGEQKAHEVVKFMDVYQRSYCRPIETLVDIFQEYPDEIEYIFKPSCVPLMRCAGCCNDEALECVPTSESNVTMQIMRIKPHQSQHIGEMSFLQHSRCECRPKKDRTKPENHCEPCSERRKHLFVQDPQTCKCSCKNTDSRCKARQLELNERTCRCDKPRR
# Procedure: (§1) Depending on the format of the assay either a streptavidin sensor (SA) or a dextran-coated (CM5) sensor was utilized as described below.
# (§2) Reaction was then quenched by addition of 10 molar excess of Glycine pH 8.0 and the sample was buffer exchanged into PBS using an Amicon 0.5 mL 3000 MWCO ultra-centrifugal filters (EMD Millipore). The biotinylation state of the protein was verified by LC-MS analysis. Biotinylated VEGF-A was then captured on the surface until a resonance unit (RU) signal of about ˜400. For immobilization of VEGF-A on CM5 sensor, the surface was first activated with a mixture of N-ethyl-N′-(3-dimethylaminopropyl)carbodiimide hydrochloride and N-hydroxysuccinimide (EDC/NHS) according to the supplier instructions. VEGF-A was then diluted into coupling buffer (0.1 M Acetate Buffer, pH 5.0) and injected until the signal reached about ˜400 RU followed by a wash with 1 M ethanolamine pH 8.0 to quench remaining activated sites.
# human VEGF-A 165 = human VEGF-A 165 (human, UniProt P15692-4 27-191); assay: SPR
# Procedure: as §1, §2
# human VEGF-A 165, sequence (P15692 other isoform, or with tags, fused parts or gaps limits assumed): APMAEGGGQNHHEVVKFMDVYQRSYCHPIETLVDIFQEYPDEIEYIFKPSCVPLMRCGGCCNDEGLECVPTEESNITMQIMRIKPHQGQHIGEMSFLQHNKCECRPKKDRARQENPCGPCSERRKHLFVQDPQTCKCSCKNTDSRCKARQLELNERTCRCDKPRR
binder,measurement,setting,value
GCNIMLPFWGCGRDFECLAGCVCQYYQSCG (designed binder) [VEGF_CKP9.54.90],Kd,rat VEGF-A,0.9 nM
same,Kd,human VEGF-A 165,0.89 nM
